# Columns and labels:
# [1] = system: cell lines which express ICAM-R; test: Homotypic aggregation assay, cell line panel; assay type: cell-based, human; settings: presence and absence of PMA
# Protocol: In order to determine whether ICAM-R is involved in homotypic cell adhesion, aggregation assays were performed with a panel of cell lines which express ICAM-R including T lymphoblastoid cell lines (SupT1, CEM, Molt 4, Hut 78, Jurkat, SKW3), B lymphoblastoid cells lines (Jijoye, Raji), monocytic cell lines (U937, HL60), a myelogenous cell line (KG-1) and the erythroleukemia cell line K562. To determine the function of the ICAM-R molecule, the cells were incubated with various antibodies before aggregation was assayed. Anti-ICAM-R supernatants produced by hybridomas ICR-2.1, ICR-1.1, ICR-4.2, and ICR-3.1 were used as well as antibody preparations known to block aggregation through a β2 integrin pathway: TS1/18 (ATCC HB203) specific for the CD18 molecule, the β-subunit of LFA-1; TS1/22 (ATCC HB202) specific for the CD11a molecule, the α-chain of LFA-1; and LM2/1 (ATCC HB204) specific for the CD11b molecule, the α-subunit of MAC-1. Purified anti-ICAM-1 antibody and hybridoma supernatant directed against the a-chain of the VLA-4 molecule (hybridoma clone 163H, Michael Longenecker, Alberta, Canada) were used as controls.
# Aggregation assays were done in duplicate, with and without addition of PMA (50 ng/ml). 3×10^5 cells in RPMI 1640 medium with 10% fetal calf serum were added in a flat-bottomed 96-well microtest plate. […]
# [2] = target: T1, Protein 3 (ICAM-R domains 1-3 fused to ICAM-1) (Homo sapiens, UniProt P05362+P32942, A326V/A340P/A352Q/A353P/D347N/D369N/D382A/E323K/E366P/E384Q/F374S/F385L/G339H/H327S/L386I/M337E/N363K/P354L/P357R/Q343K/Q356P/Q361L/Q393E/R388K/S322R/S330T/S335K/S367E/S390Q/S391T/T325E/T331E/V342A/V392R); test: FACS binding to COS cell transfectants; settings: antibody 5.0 ug/ml
# T1 construct: domains of ICAM-R (residues 1 to 291) fused to ICAM-1 (residues 317 to 532); ICAM-1 residues 317 to 532 (fusion partner in the same polypeptide); expressed in transfected cells; host or cells: COS cells, plasmid pcDNAAmp.RD1-3.1D4-5
# Excerpt: FIG. 7 is a diagram of the chimeric proteins whose construction is outlined below. Protein number 1 contains the amino-terminal immunoglobulin-like domain of ICAM-R (residues 1 to 93) fused to ICAM-1 (residue 117 to 532). Protein number 2 contains the first two amino terminal immunoglobulin-like domains of ICAM-R (residues 1 to 190) fused to ICAM-1 (residues 216 to 532). Protein number 3 contains the first three immunoglobulin-like domains of ICAM-R (residues 1 to 291) fused to ICAM-1 (residues 317 to 532).
# For the anti-ICAM-R monoclonal antibody binding assay, COS cells transfected with constructs encoding the ICAM-R chimeric proteins or control constructs were removed from the plates by EDTA treatment and aliquoted at 2.5×10^5 cells per well in a 96-well round bottom plate. Cells were washed 3 times with ice cold washing buffer (PBS containing 1% BSA and 0.05% sodium azide). Anti-ICAM-R monoclonal antibody was applied at 5.0 ug/ml in 50 ul final volume and incubated on ice for 30 minutes. Cells were then washed three times with cold washing buffer and incubated with the FITC labeled secondary antibody (sheep anti-mouse IgG F(ab′)2) at a 1:100 dilution on ice for 30 minutes in dark in 50 ul final volume. After the incubation, cells were washed again for three times in the ice cold washing buffer and resuspended in 200 ul of 1% paraformaldehyde. The samples were analyzed on a Becton-Dickinson FACScan instrument. Results of the assay are given below in Table 5 as percent positive COS cell transfectants, wherein MOPC 21 (IgG1) and UPC 10 (IgG2a) are isotype matched controls, 18E3D is an ICAM-1 specific monoclonal antibody and ICR-1.1 to ICR-9.2 are ICAM-R specific monoclonal antibodies. The reactivities of monoclonal antibodies ICR-1.1 through ICR-9.2 were assayed in a different experiment than monoclonal antibodies ICR-12.1 through ICR-17.1.
# T1 sequence (P32942+P05362 fused with the stated changes): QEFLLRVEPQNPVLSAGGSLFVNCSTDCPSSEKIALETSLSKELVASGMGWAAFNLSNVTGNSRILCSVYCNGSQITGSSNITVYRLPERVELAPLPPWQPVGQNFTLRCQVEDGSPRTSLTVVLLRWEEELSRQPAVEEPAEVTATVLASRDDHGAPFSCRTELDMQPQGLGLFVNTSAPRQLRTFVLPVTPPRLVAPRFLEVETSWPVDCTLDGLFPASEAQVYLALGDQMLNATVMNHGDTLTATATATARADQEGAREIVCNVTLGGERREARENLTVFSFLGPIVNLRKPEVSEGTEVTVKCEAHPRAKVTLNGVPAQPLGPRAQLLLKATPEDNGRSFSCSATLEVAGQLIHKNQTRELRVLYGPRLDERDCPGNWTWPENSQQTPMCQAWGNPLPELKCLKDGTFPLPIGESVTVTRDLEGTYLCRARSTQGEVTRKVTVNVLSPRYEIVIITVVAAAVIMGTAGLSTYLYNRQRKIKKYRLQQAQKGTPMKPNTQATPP
molecule,measurement,setting,value
"ICR-1.1: anti-ICAM-R monoclonal antibody, IgG2a, domain 1, ATCC HB 11053 (antibody, V domains shown) VH: QVQLQQSGAELAKPGASVKMSCKASGYTFTVYWMHWVKQRPGQGLEWIGYINPNTDYTEYNQRFQDKATLTADKSSSTAYMQLSSLTSEDSAVYYCARWGGNSYGLDYWGQGTSVTVSS VL: QIVLTQSPALMSASPGEKVTMTCSASSSVSYIYWYQQKPRSSPKPWIYLTSNLASGVPARFSGSGSGASYSLTISIMEAEDAATYYCQQWKSIPLTFGAGTKLELK",stimulation of homotypic cell-cell aggregation,[1],stimulated homotypic cell-cell aggregation
same,"percent positive COS cell transfectants, Protein 3",[2],52.71%

# Source: US20040248211A1, “ICAM-related protein” (priority 1992, published 2004)
